Each block holds one binder with its values, some of them ahead of it.
Key:
human CLDN18.2 [1] = molecular target: T1, human CLDN18.2 (human); test: ELISA on CLDN18.2-lipoparticles
T1 construct: also called huCLDN18.2; hCLDN18.2
Description: (§1) CLDN18.2-lipoparticles and Null-lipoparticles (without antigens) were used to coat 96-well plates at a final concentration of 10 U/ml in 100 mM sodium carbonate, pH 9.6. Upon washing with PBS/0.05% Tween-20 (PBS-T) and blocking with PBS-T/3% BSA for at least 1 h at 37° C., 1:3 serial dilutions of hCl antibodies with a starting concentration of 2 μg/ml were added and incubated for at least 1 h at 37° C.

human CLDN18.2 [2] = molecular target: T1, human CLDN18.2; test: flow cytometry titration, PA-TU-8988S-High cells
Description: (§2) In order to have a more homogenous cell population, the cells were sorted by FACS to select only cells with a the higher CLDN18.2 expression. […] After wash in FACS buffer, the cells were incubated with the PE-labeled Fey specific IgG goat anti-human secondary antibody (eBioscience) on ice for 30 min. After wash, the stained cells were resuspended in FACS buffer, analyzed and sorted by a FACSAria™ instrument, separating medium expressing cells from high expressing cells (FIG. 2B). […] HEK293T cells overexpressing CLDN18.2 or CLDN18.1 were generated as described in Example 3 and the expression of CLDN18.2 was analyzed by flow cytometry (FIG. 3).
(§3) A PE-coupled secondary anti-human IgG antibody was added to the cells for additional 30 min at 4° C. after washes with the FC buffer, followed by further washes with FC buffer. The cells were then resuspended in 100 μl FC buffer and measured with a FACSCalibur™ cell analyzer (BD Biosciences, USA).

human CLDN18.2 [3] = molecular target: T1, human CLDN18.2; test: flow cytometry titration, HEK293T cells overexpressing CLDN18.2
Description: as §2, §3

human CLDN18.2 [4] = molecular target: T1, human CLDN18.2; test: flow cytometry; % positive tumor cells divided by % positive healthy stomach cells
Description: Two Balb/c mice were implanted subcutaneously with 1×10⁶ A549 cells expressing CLDN18.2 in 100 μl of 50% Matrigel and tumors growth was monitored over a few weeks until the tumor reached the desired size between 150-450 mm 3. Healthy stomach tissue and tumor tissue was collected for FC analysis. The collected tissues were cut into small pieces and digested with the Miltenyi tumor dissociation kit (MACS Miltenyi Biotec, Germany). Tissue pieces were incubated with dissociation buffer (prepared according to the manufacturer instruction) in 6 well plates for 30 min in 37° C. under permanent gentle rocking motion. Samples were resuspended and strained through a 70 μm cell strainer (Corning, USA) followed by a wash with 20 ml FC buffer (PBS+2% FBS). Cell suspensions were centrifuged (5 min at 400 g for 4° C.) and the supernatants were discarded. If needed, cell suspensions were passed through a strainer and centrifuged repeatedly and pellets resuspended in 5 ml of red blood cell lysis buffer (Biolegend, USA), incubated on ice for 4 min. After incubation, 25 ml of PBS was added, and the suspensions were centrifuged again (5 min at 400 g for 4° C.). Pellets were resuspended in FC buffer (0.5-3 ml based on pellets). Equal number of cells were transferred into 96 well plates and further processed for FC analysis. The cells in the plates were washed with PBS and centrifuged (400 g for 2 min at 4° C.). […] After incubation, cells were washed twice in PBS and centrifuged (400 g for 2 min at 4° C.). Pellets were resuspended in 50 μl/well of secondary staining mix (PBS+PE-labelled anti-human antibody) (Thermo Fisher Scientific, USA), and incubated 25 min on ice. After incubation cells were washed again twice in PBS. Pellets were resuspended in 100 μl of PBS containing DAPI. Plates were kept on ice until FC analysis. For FC analysis, live cells were separated from dead cells by forward scatter and DAPI stain. Live cells were then gated for the presence of cytokeratin ([…]) and bound CLDN18.2 antibodies (PE positive cells).

human CLDN18.2 [5] = molecular target: T1, human CLDN18.2; test: ELISA on CLDN18.2-lipoparticles, after Asn-deamidation stress test
Description: The stressed and non-stressed sample was stored at −80° C. Asn-deamidation and Asp-isomerization of the samples was analyzed by strong cation exchange (SCX) chromatography. Deamidation of Asn leads in a SCX chromatogram to an increase of the peak area before the main peak (bM), while Asp-isomerization leads in a SCX chromatograph to an increase of the peak area after the main peak (aM) (Du et al. 2012). SCX chromatography was performed on a MAbPac SCX-10 Column (ThermoFisher Scientific, Basel, CH), with buffer A at pH 4.0 and buffer B at pH 11.0. The flow rate was of 0.5 ml/min with a pH gradient of 30-80% buffer B. 10 μg of the sample in 20 μl of buffer A was injected into the column. Sample detection was performed by protein absorbance at 280 nm. […] NS motifs are the second most liable motifs for deamidation.
as §1

- EC50 (human CLDN18.2 [1]): 0.0515 µg/mL
- EC50 (human CLDN18.2 [2]): 0.508 µg/mL
- Max MFI (human CLDN18.2 [2]): 1050 MFI
- EC50 (human CLDN18.2 [3]): 0.388 µg/mL
- Max MFI (human CLDN18.2 [3]): 1970 MFI
- Ratio tumor/stomach (Average) (human CLDN18.2 [4]): 0.88
- Ratio tumor/stomach (Mouse 1) (human CLDN18.2 [4]): 2.53
- Ratio tumor/stomach (Mouse 2) (human CLDN18.2 [4]): 0.29
B1: IMAB362 (antibody, human IgG1, kappa, V domains shown)
VH: QVQLQQPGAELVRPGASVKLSCKASGYTFTSYWINWVKQRPGQGLEWIGNIYPSDSYTNYNQKFKDKATLTVDKSSSTAYMQLSSPTSEDSAVYYCTRSWRGNSFDYWGQGTTLTVSS
VL: DIVMTQSPSSLTVTAGEKVTMSCKSSQSLLNSGNQKNYLTWYQQKPGQPPKLLIYWASTRESGVPDRFTGSGSGTDFTLTISSVQAEDLAVYYCQNDYSYPFTFGSGTKLEIKR
notes: Control, chimeric IgG1, synthesized from the published chains; also called Claudiximab; Zolbetuximab

- EC50 (human CLDN18.2 [5]): 0.0951 µg/mL
- fold change of EC50 against non-stressed IMAB362 (human CLDN18.2 [5]): 1.8 fold
B2: IMAB362 after the Asn-deamidation stress test (antibody, human IgG1, kappa, V domains shown)
VH: B1 VH
VL: B1 VL
modifications: partly deamidated Asn after 1 week at pH 8.0 and 40 °C; sites not determined (NS motif at LC CDR1 aa 31-32 named as liable); partly deamidated Asn after 1 week at pH 8.0 and 40 °C; sites not determined (NS motif at HC CDR3 aa 103-104 named as liable)
notes: also called stressed IMAB362; deamidated IMAB362

Reference: patent US20240034783A1 (SOTIO BIOTECH A S, published 2024)
